Target: T1, cynomolgus LAG-3 on CHO cells stably transfected with cyLAG-3 (CHO-cyLAG-3) (cynomolgus monkey)
T1 construct: whole, on cells; also called CHO::cynomolgus LAG-3
Test: FACS on transfected CHO cells
Description: To perform the experiment, LAG-3-positive and negative Flp-In CHO cells were incubated with lipocalin muteins, and bound mutein was labeled using fluorescently labeled anti-hTlc antibodies, and then the signal was detected using FACS analysis as described in this example.
5×10⁴ cells per well were pre-incubated for 1 h in ice-cold PBS containing 5% fetal calf serum (PBS-FCS). […] Cells were subsequently washed and analyzed using a intellicyt IQue Flow cytometer (Intellicyt). Fluorescent data generated by lipocalin mutein binding to LAG-3 expressing cells were analyzed by gating for LAG-3 expressing CHO cells and using Forecyt@ software and resulted geometric fluorescent mean were plotted and fitted using Graphpad software.

- EC50: 46.8 nM
B1: benchmark anti-LAG-3 antibody (SEQ ID NOs: 5 and 6) (antibody, human IgG4 S228P, kappa, V domains shown)
VH: QVQLQQWGAGLLKPSETLSLTCAVYGGSFSDYYWNWIRQPPGKGLEWIGEINHRGSTNSNPSLKSRVTLSLDTSKNQFSLKLRSVTAADTAVYYCAFGYSDYEYNWFDPWGQGTLVTVSS
VL: EIVLTQSPATLSLSPGERATLSCRASQSISSYLAWYQQKPGQAPRLLIYDASNRATGIPARFSGSGSGTDFTLTISSLEPEDFAVYYCQQRSNWPLTFGQGTNLEIKR
notes: also called benchmark antibody
